How the values were obtained:
recombinant Hsp90α [1] = target: T1, recombinant Hsp90α (human, UniProt P07900 1-732); experiment: FP; ADP
recombinant Hsp90α [2] = target: T1, recombinant Hsp90α; experiment: FP; AMPPNP

B1: Tsc1-D-His6 labeled with Texas Red maleimide (domain or fragment)
chain: DGCSDSMVGHNEEASGHNGETKTPRPSSARGSSGSRGGGGSSSSSSELSTPEKPPHQRAGPFSSRWETTMGEASASIPTTVGSLPSSKSFLGMKARELFRNKSESQCDEDGMTSSLSESLKTELGKDLGVEAKIPLNLDGPHPSPPTPDSVGQLHIMDYNETHHEHS
modifications: Texas Red C2 maleimide label, 0.8 labels/Tsc1-D
A Kd (recombinant Hsp90α [1]) of 810 nM and a Kd (recombinant Hsp90α [2]) of 240 nM were found for B1 in this work.

Source: article PMC5730846 (2017)
